# Assay results as given in paper PMC8824505, “Complexes of Ghrelin GHS-R1a, GHS-R1b, and Dopamine D1 Receptors Localized in the Ventral Tegmental Area as Main Mediators of the Dopaminergic Effects of Ghrelin” (The Journal of Neuroscience, 2022).
# B1: GHS-R1a fused to GFP2 (GHS-R1a-GFP2) (receptor, human, UniProt Q92847-1 1-366, looked up)
# chain: MWNATPSEEPGFNLTLADLDWDASPGNDSLGDELLQLFPAPLLAGVTATCVALFVVGIAGNLLTMLVVSRFRELRTTTNLYLSSMAFSDLLIFLCMPLDLVRLWQYRPWNFGDLLCKLFQFVSESCTYATVLTITALSVERYFAICFPLRAKVVVTKGRVKLVIFVIWAVAFCSAGPIFVLVGVEHENGTDPWDTNECRPTEFAVRSGLLTVMVWVSSIFFFLPVFCLTVLYSLIGRKLWRRRRGDAVVGASLRDQNHKQTVKMLAVVVFAFILCWLPFHVGRYLFSKSFEPGSLEIAQISQYCNLVSFVLFYLSAAINPILYNIMSKKYRVAVFRLLGFEPFSQRKLSTLKDESSRAWTESSINT
# Biological target: dopamine D1 receptor (D1R) (UniProt P21728 1-446)
# Assay: cell-based or functional assay
# Sequence of dopamine D1 receptor (D1R) (P21728 whole entry): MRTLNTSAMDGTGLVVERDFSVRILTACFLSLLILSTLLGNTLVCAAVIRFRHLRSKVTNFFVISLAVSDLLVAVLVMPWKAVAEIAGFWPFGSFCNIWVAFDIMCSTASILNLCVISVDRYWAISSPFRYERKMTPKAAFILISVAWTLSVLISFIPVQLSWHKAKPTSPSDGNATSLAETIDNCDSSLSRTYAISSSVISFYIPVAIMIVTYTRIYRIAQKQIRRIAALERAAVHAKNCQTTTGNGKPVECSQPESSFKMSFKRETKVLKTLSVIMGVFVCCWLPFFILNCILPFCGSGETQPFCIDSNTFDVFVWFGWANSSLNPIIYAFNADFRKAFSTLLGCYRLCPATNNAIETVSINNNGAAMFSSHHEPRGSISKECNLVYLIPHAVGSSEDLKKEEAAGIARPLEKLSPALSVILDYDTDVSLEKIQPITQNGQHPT
binder,measurement,value
B1,"ghrelin-induced cAMP accumulation in HEK293T cells with GHS-R1a, D1R and increasing GHS-R1b cDNA; increase versus control at GHS-R1b/GHS-R1a cDNA ratios of 0, 0.3, 1 and 2 (26%, 72%, 46% and 15%)",72 % increase versus control
